This test concerns the target T1, recombinant purified full-length AurA (His-AurA) (UniProt O14965 1-403).
T1 sequence (looked up): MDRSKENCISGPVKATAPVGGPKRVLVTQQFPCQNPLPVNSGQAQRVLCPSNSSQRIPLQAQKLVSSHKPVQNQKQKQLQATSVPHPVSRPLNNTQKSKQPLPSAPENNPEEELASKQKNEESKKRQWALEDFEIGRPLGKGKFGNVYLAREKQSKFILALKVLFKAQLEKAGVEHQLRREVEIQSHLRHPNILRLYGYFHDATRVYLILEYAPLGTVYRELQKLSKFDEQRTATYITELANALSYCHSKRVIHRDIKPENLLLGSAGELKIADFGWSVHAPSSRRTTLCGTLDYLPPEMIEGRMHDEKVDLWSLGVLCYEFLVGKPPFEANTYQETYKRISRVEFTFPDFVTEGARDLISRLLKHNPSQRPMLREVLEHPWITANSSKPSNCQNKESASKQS
Kind of test: pull-down.

B1: GST fused to aa 779-968 of the PC2 C terminus (domain or fragment, human, UniProt Q13563 779-968, looked up)
chain: RDDLEKEREDLDLDHSSLPRPMSSRSFPRSLDDSEEDDDEDSGHSSRRRGSISSGVSYEEFQVLVRRVDRMEHSIGSIVSKIDAVIVKLEIMERAKLKRREVLGRLLDGVAEDERLGRDSEIHREQMERLVREELERWESDDAASQISHGLGTPVGLNGQPRPRSSRPSSSQSTEGMEGAGGNGSSNVHV
As for B1, the binding result is reported as “binds”.

The record behind these values is article PMC3115793 (The Journal of Cell Biology, 2011).
